Source: PMC3902905

Experiments:
[1] = molecular target: Egg nucleoplasmin (eNP) from Xenopus laevis (X. laevis) (UniProt P05221); test: AUC; sedimentation equilibrium, Buffer I (0.24 M NaCl), NP 0.3 µM, 4°C, 8000 and 12 000 rpm, fit to a single ideal species
[2] = molecular target: Egg nucleoplasmin (eNP) from Xenopus laevis (X. laevis) (UniProt P05221); test: co-sedimentation; 5–20% sucrose gradient in Buffer I (240 mM NaCl), NP 0.9 µM mixed with histones, 1 h 25°C, 29 000 rpm 22 h 4°C; fractions by A230 and SDS–PAGE
[3] = molecular target: Egg nucleoplasmin (eNP) from Xenopus laevis (X. laevis) (UniProt P05221); test: native gel or EMSA; 2D electrophoresis (4–16% native PAGE, then 12.5% SDS–PAGE) of the high molecular mass complex and densitometry with known amounts of each protein as standards; Buffer I, 240 mM NaCl

UniProt P05221, sequence (P05221 whole entry): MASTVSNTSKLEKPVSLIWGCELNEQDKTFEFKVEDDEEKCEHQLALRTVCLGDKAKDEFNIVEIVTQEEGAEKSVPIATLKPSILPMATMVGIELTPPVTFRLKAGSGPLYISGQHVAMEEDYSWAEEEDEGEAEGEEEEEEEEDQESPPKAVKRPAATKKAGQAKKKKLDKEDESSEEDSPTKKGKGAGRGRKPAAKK

stoichiometry N (eNP pentamers per histone octamer) [1]	stoichiometry N (octamer per NP pentamer) [2]	stoichiometry N (octamer per NP pentamer) [3]	stoichiometry N (H3-H4 dimers per NP pentamer) [3]	Substance
2	0.5	0.54		Natural source histone octamer from chicken erythrocyte chromatin (from UniProt P70081 1-103) (complex)
			2.1	Natural source histones H3-H4 from chicken erythrocyte chromatin (from UniProt P84229 1-136; P70081 1-103) (complex)
